assay: soluble on expression in E. coli; label from the status in PepcDB or PDB records

Soluble on expression in E. coli, not soluble:
MKRKVSVYDSSKDKTLGQVVKGESPIWIRVAMAILRVWFFIYDCLNYLPYQLFNSPTEKLRKSERVKANWVDDRDGPIRNIQGHASETFPGKDTVDKVWRKCVELYDESPCLGTRQLIEVHEDKQPGGRVFEKWHLGEYVWQSYKEVETQVARLAAGIKDLAHEEQNPKVVIFAETRADWLITALACFRANVTIVTVYATLGEDAIAHAIGETEATILVTSSELLPKIVTLGKKCPTLKTLIYFAPVDQKAPAPELAPFRDQFKHVLSLSGLLTRNQEQVKESTAVKSDIALIMYTSGTTGQPKGVILLHQNVVAALLGQGDGVGIICNADTYIGYLPLAHILELDAELTCLTKGAKVGYSSPLTLHDRASKIQKGTHGDCHALRPTLMAAVPAIMDRIFKAVSEEVAASPRFMQELFKLNYERKRSRYLEGYCSPFLDRIVFKKIRRLLGGKLRGVLSGGAPLNAETQRFMNICMCCPVVQGYGLTETCGAACVADINDLSTGTVGPPVRCSDIALREWSEGGYSPFNDPPQGEILISGENISPGYYKQPEKTAEDFITYKGKVYFATGDIGQKRDDGSLLIIDRKKDLVKLQHGEYVSLAKVECALLNCPIVDNICVYGSGMEDSVVALVVPNQKHLEKIAEAEGVSTSEMKTMCEDKKVIAAYKKQLEEHAKKSKLSRSEIPAAIHLCPEIWTPDTGLLTEALKLKRKPIQMAYQKTLDDLYKQLKKN, MKRMLASLLGTAIALGSGLALAAEADLQALEQAARKEGQVNSVGMPDSWANWKDTWKDLESKYGLKHMDTDMSSAQELAKFKAEKDNASADIGDVGAAFGPIAVQQGVSQPYKPSTWEQIPAWAKDQDGHWALAYTGTIAFIVNKQLVKDVPHSWADLLQGKYKVTIGDVSAAAQAVNGVLAAAIANGGDEKNIKPGLEFFGKIAKQGRLSLTNPVIATLEKGEVEVGIVWDFNGLSYRQQIDPERFEVLIPSDGSVISGYTTIINKYAKHPNAAKLAREYIFSDAGQINLAKGNARPIRAESLTLPDDVKAQLLPNEQYAKAQPIKDAKAWEETSKRLPRQWQEAVIINMQ, MKRSHLENALNYALENSETAYNEMFLECDKQFILESWLNDFDLTKDYNETMHLVFSIKDKPDEETMQGLLHSTWESLKIRLPEYKFALVPHAHQDHAHIHCFINKTNQLTRRRLRFKGHEDCKEFFNELRSEFAYRLNDHLLSEEYLYVNEPKLKELDNIKQQLQDLEKEEKALEQIKSPQDEWDLNKALQSEYLQELKYKNKAKALDIQNNHSTPLKQKISEFKIALFNHKDTSDDEKEQLDIDRIDKRKPVSEHLKNTNKHELYELLGFYQKELDKKQNHSAFKNFAILNGLDRDFERETNGYSVLKKKEMLLNKLEHLDKRLLDKNSHLLLAQ

Soluble on expression in E. coli, soluble:
MKRVFVFQDFKSQKFWSIDVRGTDVIVNYGKLGTDGQTQVKNFSSAGEAEKAAGKLIAEKTKKGYVETLEEVAKEMKVEAKKYALSYDEAEEGVNLMDKILKDKKLPSLKQITIGCWGYEGEDCSDIADGIVENKEKFAHFEGLFWGDIDFEEQEISWIEQVDLSPVLDAMPLLNNLKIKGTNNLSIGKKPRPNLKSLEIISGGLPDSVVEDILGSDLPNLEKLVLYVGVEDYGFDGDMNVFRPLFSKDRFPNLKWLGIVDAEEQNVVVEMFLESDILPQLETMDISAGVLTDEGARLLLDHVDKIKHLKFINMKYNYLSDEMKKELQKSLPMKIDVSDSQEYDDDYSYPMITELEHHHHHH, MKRVFVTVGTTSFDDLIARVVAHDSVQILKNLGYNQLVLQIGRGTVVPEPFSTESFTLDVYRYKDSLKEDLQQADLVISHAGAGSCLESLEKGKPLVVVVNEKLMNNHQFELAKQLHREGHLFYCTCSMLPELLQSMDLSTLKCYPPGQPEKFSAFLDKVVGLQK, MKRWIAIILIALMPAAQAGKAAKVTLVVDDVPVVQVLQTLAEQERQNLVVSPDVSGTLSLHLTDVPWKQALQTVVNSAGLVLRQEGNILHVHSQAWQKEHSARQDAERLRFQANLPLENRSISLQYADAGELAKAGEKLLSAKGTIMVDKRTNRLLLRDNRAALAELEKWVSQMDLPVAQVELAAHIVTINEKSLRELGVKWTLADATQAGSVGDVTTLSSDLSVAAATSRVGFNIGRINGRLLDLELSALEQKQLLDIIASPRLLASHLQPASIKQGSEIPYQVSSGESGATSVEFKEAVLGMEVTPTVLQKGRIRLKLHISQNVPGQVLQQADGEVLAIDKQEIETQVEVKSGETLALGGIFSRKNKSGSDSVPLLGDIPWLGQLFRHDGKEDERRELVVFITPRLVATELEHHHHHH
